The labels stand for the following.
B2: pVII, minor capsid protein of f1 phage (natural protein, UniProt P69534 1-33, looked up)
chain: MEQVADFDTIYQAMIQISVVLCFALGIIAGGQR
notes: the five N-terminal residues (MEQVA) are not visible in the map; Arg 33 is the C-terminal residue; Five copies stand in the round tip of the nanorod; source: expressed from helper plasmid pHP1YM in double-transformed host cells, assembled into f1-derived nanorods; nanorods purified from the supernatant (PEG, CsCl density gradient, anion exchange)

Series [1] deals with B2. Briefly: cryo-EM structure; purified f1-derived nanorods (529-nt ssDNA) plunge-frozen; map of the round tip, 5-fold symmetry applied, 2.8 Å. The settings on record: both partners purified.
Series [2] concerns the molecule itself. Described as above.
Series [3] concerns the molecule itself. Put plainly: cryo-EM structure; purified f1-derived nanorods (529-nt ssDNA) plunge-frozen; map of the pointy tip, 5-fold symmetry applied, 2.9 Å.

B1: pIX, minor capsid protein of f1 phage (natural protein, UniProt P69537 1-32, looked up)
chain: MSVLVYSFASFVLGWCLRSGITYFTRLMETSS
notes: Five copies stand in the round tip of the nanorod; source: expressed from helper plasmid pHP1YM in double-transformed host cells, assembled into f1-derived nanorods; nanorods purified from the supernatant (PEG, CsCl density gradient, anion exchange)
For B1, the binding result in series [1] is recorded as “binds”.

By stoichiometry N is commonly meant a count of units in the complex or per binding partner. Consider B2, for which the “stoichiometry N” value in series [2] came to 5.

B3: pVI, minor capsid protein of f1 phage (natural protein, UniProt P69531 1-112, looked up)
chain: MPVLLGIPLLLRFLGFLLVTLFGYLLTFLKKGFGKIAIAISLFLALIIGLNSILVGYLSDISAQLPSDFVQGVQLILPSNALPCFYVILSVKAAIFIFDVKQKIVSYLDWDK
notes: density observed for the entire protein; Five copies stand in the pointy tip of the nanorod; source: expressed from helper plasmid pHP1YM in double-transformed host cells, assembled into f1-derived nanorods; nanorods purified from the supernatant (PEG, CsCl density gradient, anion exchange)
In the case of B3, the “stoichiometry N” value in series [3] was determined as 5.

Values taken from PMC10175506, “Cryo-electron microscopy of the f1 filamentous phage reveals insights into viral infection and assembly” (Nature Communications, 2023).
